Reference: patent US20220402989A1
Read-outs that look alike come from different tables or passages of the source.

Columns and labels:
[1] = biological target: IL2Rα/β/γ receptor (high affinity IL2 receptor) on YT/STAT5-Luc cells expressing endogenous or over-expressed human IL2Rα (human) (UniProt P01589); assay: cell-based or functional assay
[2] = biological target: IL2Rβ/γ receptor (low/medium affinity IL2 receptor) on YT/STAT5-Luc cells with IL2Rα knocked out (human) (UniProt P14784); assay: cell-based or functional assay
[3] = biological target: human PD1 (amino acids M1-L288 of NP_005009.2 with a 2Q=>E mutation) stably expressed on engineered reporter cells (human) (UniProt Q15116); assay: cell-based or functional assay
[4] = biological target: IL2Rα/β/γ receptor (high affinity IL2 receptor) on YT/STAT5-Luc cells expressing endogenous or over-expressed human IL2Rα (human) (UniProt P01589); assay: cell-based or functional assay; remark: listed apart in the source
[5] = biological target: IL2Rβ/γ receptor (low/medium affinity IL2 receptor) on YT/STAT5-Luc cells with IL2Rα knocked out (human) (UniProt P14784); assay: cell-based or functional assay; remark: listed apart in the source
[6] = biological target: IL2Rα/β/γ receptor (high affinity IL2 receptor) on YT/STAT5-Luc cells expressing endogenous or over-expressed human IL2Rα (human) (UniProt P01589); assay: flow cytometry, YT/STAT5-Luc CD25 OE/PD1 OE cells, AF647 anti-human IgG secondary
[7] = biological target: IL2Rβ/γ receptor (low/medium affinity IL2 receptor) on YT/STAT5-Luc cells with IL2Rα knocked out (human) (UniProt P14784); assay: flow cytometry, YT/STAT5-Luc CD25 KO/PD1 OE cells, AF647 anti-human IgG secondary
[8] = biological target: IL2Rα/β/γ receptor (high affinity IL2 receptor) on YT/STAT5-Luc cells expressing endogenous or over-expressed human IL2Rα (human) (UniProt P01589); assay: flow cytometry on YT/STAT5-Luc/IL2Ra OE (CD25 OE/PD1 OE) cells, AF647 anti-human IgG secondary, gMFI on a log axis

Substance	EC50, STAT5-Luc IL2 reporter assay, YT/Stat5-Luc/hIL2Rα [1]	EC50, STAT5-Luc IL2 reporter assay, YT/Stat5-Luc/hIL2Rα/hPD1 [1]	Fold induction, STAT5-Luc IL2 reporter assay, YT/Stat5-Luc [1]	Fold induction, STAT5-Luc IL2 reporter assay, YT/Stat5-Luc/hIL2Rα [1]	Fold induction, STAT5-Luc IL2 reporter assay, YT/Stat5-Luc/hIL2Rα/hPD1 [1]	Fold induction, STAT5-Luc IL2 reporter assay, YT/Stat5-Luc/hPD1 [1]	Fold induction, STAT5-Luc IL2 reporter assay, YT/Stat5-Luc/IL2Rα KO [2]	Fold induction, STAT5-Luc IL2 reporter assay, YT/Stat5-Luc/IL2Rα KO/hPD1 [2]	Fold induction, AP1-Luc PD1 antagonistic assay [3]	EC50 (M), STAT5-Luc IL2 reporter assay, CD25 OE/PD1 OE [1]	Max Fold induction, STAT5-Luc IL2 reporter assay, CD25 OE/PD1 OE [1]	Max Fold induction, STAT5-Luc IL2 reporter assay, CD25 KO/PD1 OE [2]	further results
Isotype control 1 (antibody)	–	–	–	–	–	–	–	–	1.13 fold	–	–	–	–
Isotype-IL2-IL2Ra	–	–	–	–	–	–	–	–	–	1.41e-09 M	7.78 fold	1.25 fold	–
REGN9903 (isotype-IL2Rα-IL2 control)	–	–	–	–	–	–	–	–	–	3.31e-10 M	7 fold	4.37 fold	–
REGN10597	0.848 nM	0.0353 nM	3.29 fold	5.19 fold	2.88 fold	6.39 fold	2.85 fold	3.54 fold	3.04 fold	3.3e-11 M	7.36 fold	5.72 fold	EC50 (M), STAT5-Luc IL2 reporter assay, CD25 OE/PD1 OE [4]: 3.71e-11 M; Max Fold induction, STAT5-Luc IL2 reporter assay, CD25 OE/PD1 OE [4]: 5.1 fold; EC50 (M), STAT5-Luc IL2 reporter assay, CD25 KO/PD1 OE [5]: 8.38e-11 M; Max Fold induction, STAT5-Luc IL2 reporter assay, CD25 KO/PD1 OE [5]: 4.36 fold; EC50 (M), AP1-Luc PD1 antagonistic assay [3]: 1.26e-08 M; EC50, PD1 competition STAT5-Luc assay, YT/STAT5-Luc/IL2Rα KO/hPD1, no antibody ('-') [3]: 0.129 nM; EC50, PD1 competition STAT5-Luc assay, YT/STAT5-Luc/IL2Rα KO/hPD1, with Comp 1 [3]: 0.306 nM; EC50, PD1 competition STAT5-Luc assay, YT/STAT5-Luc/IL2Rα KO/hPD1, with Comp 2 [3]: 0.281 nM; EC50, PD1 competition STAT5-Luc assay, YT/STAT5-Luc/IL2Rα KO/hPD1, with REGN2810 [3]: 0.222 nM; EC50, PD1 competition STAT5-Luc assay, YT/STAT5-Luc/IL2Rα KO/hPD1, with isotype control [3]: 0.132 nM; EC50, PD1 competition STAT5-Luc assay, YT/STAT5-Luc/hIL2Rα/hPD1, no antibody ('-') [3]: 0.0545 nM; EC50, PD1 competition STAT5-Luc assay, YT/STAT5-Luc/hIL2Rα/hPD1, with Comp 1 [3]: 0.0765 nM; EC50, PD1 competition STAT5-Luc assay, YT/STAT5-Luc/hIL2Rα/hPD1, with Comp 2 [3]: 0.0805 nM; EC50, PD1 competition STAT5-Luc assay, YT/STAT5-Luc/hIL2Rα/hPD1, with REGN2810 [3]: 0.117 nM; EC50, PD1 competition STAT5-Luc assay, YT/STAT5-Luc/hIL2Rα/hPD1, with isotype control [3]: 0.0709 nM; EC50, STAT5-Luc IL2 reporter assay, YT/Stat5-Luc/hPD1 [1]: 0.175 nM; EC50 (M), STAT5-Luc IL2 reporter assay, CD25 KO/PD1 OE [2]: 5.78e-11 M; EC50, STAT5-Luc IL2 reporter assay, YT/Stat5-Luc/IL2Rα KO/hPD1 [2]: 0.191 nM

Now from value to substance, other results behind:

EC50, STAT5-Luc IL2 reporter assay, YT/Stat5-Luc/hIL2Rα [1]	EC50, STAT5-Luc IL2 reporter assay, YT/Stat5-Luc/hIL2Rα/hPD1 [1]	Fold induction, STAT5-Luc IL2 reporter assay, YT/Stat5-Luc [1]	Fold induction, STAT5-Luc IL2 reporter assay, YT/Stat5-Luc/hIL2Rα [1]	Fold induction, STAT5-Luc IL2 reporter assay, YT/Stat5-Luc/hIL2Rα/hPD1 [1]	Fold induction, STAT5-Luc IL2 reporter assay, YT/Stat5-Luc/hPD1 [1]	Fold induction, STAT5-Luc IL2 reporter assay, YT/Stat5-Luc/IL2Rα KO [2]	Fold induction, STAT5-Luc IL2 reporter assay, YT/Stat5-Luc/IL2Rα KO/hPD1 [2]	Fold induction, AP1-Luc PD1 antagonistic assay [3]	EC50 (M), STAT5-Luc IL2 reporter assay, CD25 OE/PD1 OE [1]	Max Fold induction, STAT5-Luc IL2 reporter assay, CD25 OE/PD1 OE [1]	Max Fold induction, STAT5-Luc IL2 reporter assay, CD25 KO/PD1 OE [2]	Substance	further results
0.0241 nM	0.0232 nM	4.96 fold	5.49 fold	3.06 fold	7.97 fold	5.4 fold	3.87 fold	–	–	–	–	IL2-Fc (Fc fusion)	EC50, STAT5-Luc IL2 reporter assay, YT/Stat5-Luc [1]: 0.402 nM; EC50, STAT5-Luc IL2 reporter assay, YT/Stat5-Luc/hPD1 [1]: 0.392 nM; EC50, STAT5-Luc IL2 reporter assay, YT/Stat5-Luc/IL2Rα KO [2]: 1.33 nM; EC50, STAT5-Luc IL2 reporter assay, YT/Stat5-Luc/IL2Rα KO/hPD1 [2]: 0.442 nM
–	–	–	–	–	–	–	–	1.2 fold	–	–	–	Isotype control 2 (antibody)	–
–	–	1.07 fold	1.07 fold	1 fold	1.08 fold	1.12 fold	1.06 fold	–	–	–	–	Isotype control (IL2 reporter assay, Tables 8 and 9) (antibody)	–
1.63 nM	0.971 nM	3.21 fold	4.87 fold	2.77 fold	4.52 fold	2.62 fold	2.59 fold	1.08 fold	–	–	–	REGN9904 (non-targeted IL2Rα-IL2)	EC50 (M), STAT5-Luc IL2 reporter assay, CD25 OE/PD1 OE [4]: 7.69e-10 M; Max Fold induction, STAT5-Luc IL2 reporter assay, CD25 OE/PD1 OE [4]: 4.57 fold; Max Fold induction, STAT5-Luc IL2 reporter assay, CD25 KO/PD1 OE [5]: 3.24 fold; Fold induction (highest gMFI relative to gMFI without antibody) [6]: 33.1 fold; Max gMFI [6]: 77600 gMFI; Fold induction (highest gMFI relative to gMFI without antibody) [7]: 1.7 fold; Max gMFI [7]: 3990 gMFI; EC50, PD1 competition STAT5-Luc assay, YT/STAT5-Luc/hIL2Rα/hPD1, no antibody ('-') [1]: 0.703 nM; EC50, PD1 competition STAT5-Luc assay, YT/STAT5-Luc/hIL2Rα/hPD1, with Comp 1 [1]: 0.918 nM; EC50, PD1 competition STAT5-Luc assay, YT/STAT5-Luc/hIL2Rα/hPD1, with Comp 2 [1]: 0.938 nM; EC50, PD1 competition STAT5-Luc assay, YT/STAT5-Luc/hIL2Rα/hPD1, with REGN2810 [1]: 0.651 nM; EC50, PD1 competition STAT5-Luc assay, YT/STAT5-Luc/hIL2Rα/hPD1, with isotype control [1]: 0.791 nM; EC50 (read off the curve) [8]: 10 nM
